Reference: the supplement of paper PMC10567573

B1: PPFIA4 (parent)
chain: YAGNLHESGVHGALLALDENFDHN

Variants of: B1
Assay: protein stability index of a GFP-peptide fusion (GPS, HEK-293T) (PSI 1-6); higher = more stable
Conditions: c terminus: a fixed tail appended
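Also: lentivirally expressed fusions sorted by FACS into six bins by GFP to DsRed ratio, PSI derived from sequencing read proportions per bin multiplied by bin number.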

Variant	protein stability index
YAGNLHESGVHGALLALDESFDHN [N20S]	2.58
YAGNLHESGVHGALLALDETFDHN [N20T]	2.16
YAGNLHESGVHGALLALDEHFDHN [N20H]	2.48
YAGNLHESGVHGALLALDEGFDHN [N20G]	3.1
YAGNLHESGVHGALLALDEAFDHN [N20A]	2.68
YAGNLHESGVHGALLALDEDFDHN [N20D]	2.98
YAGNLHESGVHGALLALDEPFDHN [N20P]	2.63
YAGNLHESGVHGALLALDEKFDHN [N20K]	2.23
YAGNLHESGVHGALLALDEIFDHN [N20I]	1.79
YAGNLHESGVHGALLALDEQFDHN [N20Q]	1.86
YAGNLHESGVHGALLALDEYFDHN [N20Y]	2.24
YAGNLHESGVHGALLALDEEFDHN [N20E]	3.07
YAGNLHESGVHGALLALDEVFDHN [N20V]	2.42
YAGNLHESGVHGALLALDEWFDHN [N20W]	2.27
YAGNLHESGVHGALLALDEFFDHN [N20F]	2.17
YAGNLHESGVHGALLALDECFDHN [N20C]	2.32
YAGNLHESGVHGALLALDERFDHN [N20R]	2.25
YAGNLHESGVHGALLALDELFDHN [N20L]	1.63
YAGNLHESGVHGALLALDEMFDHN [N20M]	2.09
YAGNLHESGVHGANLALDENFDHN [L14N]	3.8
YAGNLHESGVHGAPLALDENFDHN [L14P]	4.03
YAGNLHESGVHGAKLALDENFDHN [L14K]	3.15
YAGNLHESGVHGAILALDENFDHN [L14I]	1.97
YAGNLHESGVHGAALALDENFDHN [L14A]	3.27

Variant	protein stability index
YAGNLHESGVHGATLALDENFDHN [L14T]	3.56
YAGNLHESGVHGAWLALDENFDHN [L14W]	1.43
YAGNLHESGVHGASLALDENFDHN [L14S]	3.45
YAGNLHESGVHGAGLALDENFDHN [L14G]	3.63
YAGNLHESGVHGAVLALDENFDHN [L14V]	2.16
YAGNLHESGVHGARLALDENFDHN [L14R]	3.31
YAGNLHESGVHGAYLALDENFDHN [L14Y]	2.47
YAGNLHESGVHGADLALDENFDHN [L14D]	4.59
YAGNLHESGVHGAELALDENFDHN [L14E]	3.83
YAGNLHESGVHGAFLALDENFDHN [L14F]	1.81
YAGNLHESGVHGAHLALDENFDHN [L14H]	3.8
YAGNLHESGVHGAMLALDENFDHN [L14M]	3.07
YAGNLHESGVHGACLALDENFDHN [L14C]	2.36
YAGNLHESGVHGAQLALDENFDHN [L14Q]	4.02
YAGNLHESGVHGALLALDENFCHN [D22C]	1.65
YAGNLHESGVHGALLALDENFAHN [D22A]	2.56
YAGNLHESGVHGALSALDENFDHN [L15S]	3.87
YAGNLHESGVHGALVALDENFDHN [L15V]	3.29
YAGNLHESGVHGALAALDENFDHN [L15A]	4.13
YAGNLHESGVHGALMALDENFDHN [L15M]	2.93
YAGNLHESGVHGALKALDENFDHN [L15K]	3.46
YAGNLHESGVHGALTALDENFDHN [L15T]	3.78
YAGNLHESGVHGALYALDENFDHN [L15Y]	2.31
YAGNLHESGVHGALGALDENFDHN [L15G]	3.54

Variant	protein stability index
YAGNLHESGVHGALNALDENFDHN [L15N]	3.89
YAGNLHESGVHGALCALDENFDHN [L15C]	3.06
YAGNLHESGVHGALFALDENFDHN [L15F]	2.2
YAGNLHESGVHGALHALDENFDHN [L15H]	3.31
YAGNLHESGVHGALIALDENFDHN [L15I]	2.22
YAGNLHESGVHGALEALDENFDHN [L15E]	4.23
YAGNLHESGVHGALDALDENFDHN [L15D]	4.06
YAGNLHESGVHGALPALDENFDHN [L15P]	4.09
YAGNLHESGVHGALQALDENFDHN [L15Q]	3.52
YAGNLHESGVHGALRALDENFDHN [L15R]	2.8
YAGNLHESGVHRALLALDENFDHN [G12R]	2.74
YAGNLHESGVHMALLALDENFDHN [G12M]	2.59
YAGNLHESGVHVALLALDENFDHN [G12V]	1.95
YAGNLHESGVHSALLALDENFDHN [G12S]	3.28
YAGNLHESGVHTALLALDENFDHN [G12T]	3.22
YAGNLHESGVHKALLALDENFDHN [G12K]	2.97
YAGNLHESGVHLALLALDENFDHN [G12L]	2.73
YAGNLHESGVHEALLALDENFDHN [G12E]	3.78
YAGNLHESGVHQALLALDENFDHN [G12Q]	3.56
YAGNLHESGVHPALLALDENFDHN [G12P]	2.11
YAGNLHESGVHWALLALDENFDHN [G12W]	3.02
YAGNLHESGVHIALLALDENFDHN [G12I]	1.94
YAGNLHESGVHYALLALDENFDHN [G12Y]	1.7
YAGNLHESGVHNALLALDENFDHN [G12N]	3.68

Variant	protein stability index
YAGNLHESGVHFALLALDENFDHN [G12F]	2.32
YAGNLHESGVHHALLALDENFDHN [G12H]	2.71
YAGNLHESGVHGALLALDRNFDHN [E19R]	2.06
YAGNLHESGVHGALLALDFNFDHN [E19F]	1.61
YAGNLHESGVHGALLALDPNFDHN [E19P]	1.6
YAGNLHESGVHGALLALDLNFDHN [E19L]	1.24
YAGNLHESGVHGALLALDCNFDHN [E19C]	1.33
YAGNLHESGVHGALLALDSNFDHN [E19S]	1.54
YAGNLHESGVHGALLALDYNFDHN [E19Y]	1.61
YAGNLHESGVHGALLALDKNFDHN [E19K]	1.5
YAGNLHESGVHGALLALDNNFDHN [E19N]	2.2
YAGNLHESGVHGALLALDWNFDHN [E19W]	3.17
YAGNLHESGVHGALLALDTNFDHN [E19T]	2.68
YAGNLHESGVHGALLALDMNFDHN [E19M]	1.65
YAGNLHESGVHGALLALDINFDHN [E19I]	2.97
YAGNLHESGVHGALLALDVNFDHN [E19V]	2
YAGNLHESGVHGALLALDQNFDHN [E19Q]	1.64
YAGNLHESGVHGALLALDANFDHN [E19A]	2.08
YAGNLHESGVHGALLALDDNFDHN [E19D]	2.6
YAGNLHESGVHGALLALDGNFDHN [E19G]	2.1
YAGNLHESGVHGALLALDHNFDHN [E19H]	1.31
YAGNLHESGVHGALLASDENFDHN [L17S]	4.03
